According to article PMC10505172, “Discovery and pharmacophoric characterization of chemokine network inhibitors using phage-display, saturation mutagenesis and computational modelling” (Nature Communications, 2023):

How the values were obtained:
[1] = target: T1, CXCL10 (Homo sapiens, UniProt P02778); assay: CXCL10-induced activated T cell (ATC) migration (chemotaxis); assay type: cell-based; settings: HD2, HD2SCR and EVA4 at 20 μM (Fig. 6i), activated T cells, n = 3 biological replicates
T1 construct: purchased Peprotech 300-12
Protocol: For activated-T cell migration assays, 100000 cells/well were added to the top chamber of a 3-µm Transwell insert (3385, Corning) in 50 µL of migration media (HBSS (14025-092, Life Technologies), 0.1% protease free bovine serum albumin (A7030, Sigma), 0.05% DMSO (D4540, Sigma)). The bottom chamber contained 150 µL of migration media with chemokine and peptide added. Cells were migrated at 37 °C in 5% CO2 for 2 h.
Following the migration assay the migration plate was shaken at 850 RPM for 10 min, and media from bottom plate transferred to a round-bottomed 96 well plate (353910, Falcon). Cell counts were determined using an Atune NxT Flow Cytometer Plate Reader with Cytkick autosampler (ThermoFisher), based on cell size parameters FSC-H/SSC-H, and a previously defined gate setting for each cell type (Supplementary Fig. 11). All experiments were performed as three technical and three biological replicates. Statistical significances between control and experimental groups was evaluated using Dunnett’s test[73]. IC50 experiments were performed at the EC80 dose of chemokine. EC80 was calculated by fitting a chemokine dose-response curve with a 3-parameter log-logistic model (fixing the top to 100%) using the function “drm” in R-package drc[74]. IC50 was calculated by fitting an inhibitor response curve with a 4-parameter log-logistic model using the function “drm” in R-package drc[74]. […]

[2] = target: T2, CXCL6 (Homo sapiens, UniProt P80162); assay: CXCL6-induced Jurkat CXCR1 (J:CXCR1) migration (chemotaxis); assay type: cell-based; settings: HD2, HD2SCR and EVA4 at 10 μM, chemokine at EC80, J:CXCR1 cells, n = 3 biological replicates, Dunnett's test
T2 construct: purchased Peprotech 300-41
Protocol: For THP1 migration assays, 300000 cells/well were added to the top chamber of a 5-µm 96-well Transwell insert (3387, Corning) in 50 µL of cell migration media (RPMI-1640 (R0883, Sigma), 0.5% FBS (F9665, Sigma), 4 mM L-Glutamine (G7513, Sigma), 0.05% DMSO (D4540, Sigma)). The bottom chamber contained 150 µL of migration media with chemokine and peptide added. Cells were migrated at 37 °C in 5% CO2 for 4 h.
J:CXCR1 migration assays were performed exactly as for THP1 assays except that a 3-µm Transwell insert (3385, Corning) was used.
Following the migration assay the migration plate was shaken at 850 RPM for 10 min, and media from bottom plate transferred to a round-bottomed 96 well plate (353910, Falcon). Cell counts were determined using an Atune NxT Flow Cytometer Plate Reader with Cytkick autosampler (ThermoFisher), based on cell size parameters FSC-H/SSC-H, and a previously defined gate setting for each cell type (Supplementary Fig. 11). […] Statistical significances between control and experimental groups was evaluated using Dunnett’s test[73]. […] EC80 was calculated by fitting a chemokine dose-response curve with a 3-parameter log-logistic model (fixing the top to 100%) using the function “drm” in R-package drc[74]. IC50 was calculated by fitting an inhibitor response curve with a 4-parameter log-logistic model using the function “drm” in R-package drc[74]. […]

B1: EVA4: parental tick class A evasin, mature peptide residues 24–127 with N-terminal His-tag, expressed in HEK293F cells (protein)
chain: EVPQMTSSSAPDLEEEDDYTAYAPLTCYFTNSTLGLLAPPNCSVLCNSTTTWFNETSPNNASCLLTVDFLTQDAILQENQPYNCSVGHCDNGTCAGPPRHAQCW
modifications: left off: 8xHis, N-terminal, state not stated
notes: parental tick class A evasin, mature peptide residues 24–127 with N-terminal His-tag, expressed in HEK293F cells
- effect on chemokine-induced cell migration [1]: did not inhibit
- effect on chemokine-induced cell migration [2]: did not inhibit
